According to a protein production outcome set (Wang et al. 2014):

test: label from the status in PepcDB records

**Q.** For “MGHHHHHHSHMIRINEIKLPLDHEEGALLDAITKKLGIPAEKVISFNVFRRGYDARKKTNIHLIYTLDIIVEGDETALLAKFANDPHVRQTPDMEYKFVAKAPENLTERPIVIGFGPCGLFAGLVLAQMGFNPIIVERGKEVRERTKDTFGFWRKRTLNPESNVQFGEGGAGTFSDGKLYSQVKDPNFYGRKVITEFVEAGAPEEILYVSKPHIGTFKLVTMIEKMRATIIELGGEIRFSTRVDGLHMEDGQITGVTLSNGEEIKSRHVVLAVGHSARDTFEMLHERGVYMEAKPFSVGFRIEHKQSMIDEARFGPNAGHPILGAADYKLVHHCKNGRTVYSFCMCPGGTVVAATSEEGRVVTNGMSQYSRAERNANSAIVVGISPEVDYPGDPLAGIRFQRELESNAYKLGGENYDAPAQKIGDFLKGRDPSQLGDVEPSFTPGIKLTDLSKALPPFAVEAIREAIPAFDRKIKGFASEDGLLTGVETRTSSPVCIKRGKDFQSVNLKGFYPAGEGAGYAGGILSAGIDGIKVAEAVARDIVAAMENA”, which protein production is on record?
**A.** not failed

**Q.** Which protein production does the source give for “MGHHHHHHSHMISWLTGEELHVEVLENVPLTTHNFVRKTFFTLAFCDFCRKLLFQGFRCQTCGYKFHQRCSTEVPLMCVNYDQLDLLFVSKFFEHHPIPQEEASLAETA” here?
**A.** not failed

**Q.** For “MGHHHHHHSHMLPPEQWSHTTVRNALKDLLKDMNQSSLAKECPLSQSMISSIVNSTYYANVSAAKCQEFGRWYKHFKKTKDMM”, which protein production is on record?
**A.** not failed

**Q.** With “MGHHHHHHSHMNSCILQATVVEAPQLRYTQDNQTPVAEMVVQFPGLSSKDAPARLKVVGWGAVAQELQDRCRLNDEVVLEGRLRINSLLKPDGNREKQTELTVTRVHH” as the sequence, how does the protein production read?
**A.** not failed

**Q.** With “MGHHHHHHSHMPSYTVTVATGSQWFAGTDDYIYLSLVGSAGCSEKHLLDKPFYNDFERGAVDSYDVTVDEELGEIQLVRIEKRKYWLNDDWYLKYITLKTPHGDYIEFPCYRWITGDVEVVLRDGRAKLARDDQIHILKQHRRKELETRQKQYRWMEWNPGFPLSIDAKCHKDLPRDIQFDSEKGVDFVLNYSKAMENLFINRFMHMFQSSWNDFADFEKIFVKISNTISERVMNHWQEDLMFGYQFLNGCNPVLIRRCTELPEKLPVTTEMVECSLERQLSLEQEVQQGNIFIVDFELLDGIDANKTDPCTLQFLAAPICLLYKNLANKIVPIAIQLNQIPGDENPIFLPSDAKYDWLLAKIWVRSSDFHVHQTITHLLRTHLVSEVFGIAMYRQLPAVHPIFKLLVAHVRFTIAINTKAREQLICECGLFDKANATGGGGHVQMVQRAMKDLTYASLCFPEAIKARGMESKEDIPYYFYRDDGLLVWEAIRTFTAEVVDIYYEGDQVVEEDPELQDFVNDVYVYGMRGRKSSGFPKSVKSREQLSEYLTVVIFTASAQHAAVNFGQ” as the sequence, how does the protein production read?
**A.** failed

**Q.** With “MGHHHHHHSHMRCQESMSAVLTAEQALKLVGEMFVYHMPFNRALGLELERYEKAFAQLAFNNQPMMVGNWAQSILHGGVIASALDVAAGLVCVGSTLTRHETISEDELRQRLSRMGTIDLRVDYLRPGRGNRFTATSSLLRAGNKVAVARVELHNEDQLYIASATATYMVG” as the sequence, how does the protein production read?
**A.** failed

**Q.** With “MGHHHHHHSHMSGEKTVVCKHWLRGLCKKGDQCEFLHEYDMTKMSECYFYSKFGECSNKECPFLHIDPESKI” as the sequence, how does the protein production read?
**A.** not failed

**Q.** Which protein production does the source give for “MGHHHHHHSHMSYKPNLAAHMPAAALNAAGSVHSPSTSMATSSQYRQLLSDYGPPSLGYTQGTGNSQVPQSKYAELLAIIEELGKEIRPTYAGSKSAMERLKRGIIHARGLVRECLAETERNARS” here?
**A.** failed

**Q.** For “MGHHHHHHSHMTHSDKPYKCDRCQASFRYKGNLASHKTVHTGEKPYRCNICGAQFNRPANLKTHTRIHSGEKPY”, which protein production is on record?
**A.** not failed

**Q.** With “MGHHHHHHSHSPSPSSRVTVSRASSSRSVRTTRGKRKRVDVEESEASSSVSISHSASATGNVCIEEIDVDGKFIRLKNTSEQDQPMGGWEMIRKIGDTSVSYKYTSRYVLKAGQTVTIWAANAGVTASPPTDLIWKNQNSWGTGEDVKVILKNSQGEEVAQRSTVFKTTIPEEE” as the sequence, how does the protein production read?
**A.** not failed

**Q.** For “MGHHHHHHSHSSFQTMDQMVSNMRNYMQKLERNFGQLSVDPNGHSFCSSSVMTYSKIGDEP”, which protein production is on record?
**A.** failed
